Reference: the supplement of paper PMC10065799, “High-throughput profiling of sequence recognition by tyrosine kinases and SH2 domains using bacterial peptide display” (eLife, 2023)

Legend:
[1] = tested on: AncSZ; assay: phosphorylation enrichment, bacterial display (enrichment ratio); higher = better substrate or ligand; peptides without Tyr show the background
[2] = target: EPHB1 (UniProt P54762); assay: as above
[3] = target: EPHB2 (UniProt P29323); assay: as above
[4] = target: FGFR1 (UniProt P11362); assay: as above
[5] = target: FGFR3 (UniProt P22607); assay: as above
[6] = tested on: Fer (mouse); assay: as above
[7] = target: Fes (UniProt P07332); assay: as above
[8] = target: Fyn (UniProt P06241); assay: as above
[9] = target: Hck (UniProt P08631); assay: as above
[10] = target: Jak2 (UniProt O60674); assay: as above
[11] = target: MERTK (UniProt Q12866); assay: as above
[12] = tested on: c-Abl (mouse); assay: as above
[13] = tested on: c-Src; assay: as above
[14] = target: Grb2 SH2 (UniProt P62993); assay: SH2 binding enrichment of the phosphorylated peptide, bacterial display (enrichment ratio); higher = better substrate or ligand; peptides without Tyr show the background
[15] = target: SHP2-C SH2; assay: as above
[16] = target: c-Src SH2; assay: as above
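Wherever SH2 binding enrichment of the phosphorylated peptide, bacterial display is given: peptide library displayed on the E. coli surface as eCPX fusions, selected cells deep-sequenced, score is each peptide's frequency after selection divided by its frequency in the input.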
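Wherever phosphorylation enrichment, bacterial display is given: 11-residue human phosphosite peptides and single-mutation variants displayed on the E. coli surface, counted by deep sequencing, each peptide's frequency after selection divided by its frequency in the unselected input library; frequency after pTyr selection over input frequency; kinase dosed for 20-30% of maximal phosphorylation in three min.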

Chain of Jak2 (O60674 whole entry, looked up): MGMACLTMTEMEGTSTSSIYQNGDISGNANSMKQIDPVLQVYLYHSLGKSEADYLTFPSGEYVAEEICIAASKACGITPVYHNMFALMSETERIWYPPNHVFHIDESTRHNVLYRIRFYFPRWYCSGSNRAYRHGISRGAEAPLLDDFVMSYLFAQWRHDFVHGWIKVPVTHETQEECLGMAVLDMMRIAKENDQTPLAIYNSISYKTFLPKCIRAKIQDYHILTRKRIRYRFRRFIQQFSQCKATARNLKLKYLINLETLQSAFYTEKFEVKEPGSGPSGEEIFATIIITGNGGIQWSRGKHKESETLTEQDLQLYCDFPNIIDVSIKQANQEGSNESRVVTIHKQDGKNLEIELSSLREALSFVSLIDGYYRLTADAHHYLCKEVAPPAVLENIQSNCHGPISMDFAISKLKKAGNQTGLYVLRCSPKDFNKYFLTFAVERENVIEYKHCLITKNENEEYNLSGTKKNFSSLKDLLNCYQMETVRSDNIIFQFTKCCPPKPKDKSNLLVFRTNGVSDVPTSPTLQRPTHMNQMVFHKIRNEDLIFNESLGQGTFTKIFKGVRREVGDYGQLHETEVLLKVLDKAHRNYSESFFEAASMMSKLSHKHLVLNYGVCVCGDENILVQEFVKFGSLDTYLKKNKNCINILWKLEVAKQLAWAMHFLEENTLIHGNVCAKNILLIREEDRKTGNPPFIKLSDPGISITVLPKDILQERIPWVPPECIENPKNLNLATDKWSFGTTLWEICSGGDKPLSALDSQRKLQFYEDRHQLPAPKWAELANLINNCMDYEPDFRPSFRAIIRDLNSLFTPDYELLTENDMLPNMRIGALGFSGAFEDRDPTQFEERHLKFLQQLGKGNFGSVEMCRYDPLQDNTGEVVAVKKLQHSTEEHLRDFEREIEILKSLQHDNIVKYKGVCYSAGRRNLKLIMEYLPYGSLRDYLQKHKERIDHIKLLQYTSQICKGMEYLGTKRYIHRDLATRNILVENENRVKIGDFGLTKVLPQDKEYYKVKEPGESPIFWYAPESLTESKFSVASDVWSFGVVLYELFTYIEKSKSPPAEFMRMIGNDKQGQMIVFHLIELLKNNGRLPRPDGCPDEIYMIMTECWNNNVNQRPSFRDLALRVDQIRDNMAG
Chain of Hck (P08631 whole entry, looked up): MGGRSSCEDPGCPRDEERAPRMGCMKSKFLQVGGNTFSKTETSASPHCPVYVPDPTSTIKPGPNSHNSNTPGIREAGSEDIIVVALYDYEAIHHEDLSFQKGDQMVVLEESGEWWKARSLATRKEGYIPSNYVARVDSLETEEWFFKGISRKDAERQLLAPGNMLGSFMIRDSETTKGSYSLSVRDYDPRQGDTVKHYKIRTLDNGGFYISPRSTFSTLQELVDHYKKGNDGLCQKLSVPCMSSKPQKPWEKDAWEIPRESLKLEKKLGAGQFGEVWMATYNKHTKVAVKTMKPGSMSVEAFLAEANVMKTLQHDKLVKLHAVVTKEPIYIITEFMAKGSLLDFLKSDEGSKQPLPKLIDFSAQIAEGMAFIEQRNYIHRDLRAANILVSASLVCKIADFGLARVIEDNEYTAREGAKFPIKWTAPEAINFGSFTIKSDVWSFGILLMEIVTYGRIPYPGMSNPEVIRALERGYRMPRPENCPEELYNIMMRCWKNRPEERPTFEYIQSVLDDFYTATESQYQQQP
Chain of EPHB1 (P54762 whole entry, looked up): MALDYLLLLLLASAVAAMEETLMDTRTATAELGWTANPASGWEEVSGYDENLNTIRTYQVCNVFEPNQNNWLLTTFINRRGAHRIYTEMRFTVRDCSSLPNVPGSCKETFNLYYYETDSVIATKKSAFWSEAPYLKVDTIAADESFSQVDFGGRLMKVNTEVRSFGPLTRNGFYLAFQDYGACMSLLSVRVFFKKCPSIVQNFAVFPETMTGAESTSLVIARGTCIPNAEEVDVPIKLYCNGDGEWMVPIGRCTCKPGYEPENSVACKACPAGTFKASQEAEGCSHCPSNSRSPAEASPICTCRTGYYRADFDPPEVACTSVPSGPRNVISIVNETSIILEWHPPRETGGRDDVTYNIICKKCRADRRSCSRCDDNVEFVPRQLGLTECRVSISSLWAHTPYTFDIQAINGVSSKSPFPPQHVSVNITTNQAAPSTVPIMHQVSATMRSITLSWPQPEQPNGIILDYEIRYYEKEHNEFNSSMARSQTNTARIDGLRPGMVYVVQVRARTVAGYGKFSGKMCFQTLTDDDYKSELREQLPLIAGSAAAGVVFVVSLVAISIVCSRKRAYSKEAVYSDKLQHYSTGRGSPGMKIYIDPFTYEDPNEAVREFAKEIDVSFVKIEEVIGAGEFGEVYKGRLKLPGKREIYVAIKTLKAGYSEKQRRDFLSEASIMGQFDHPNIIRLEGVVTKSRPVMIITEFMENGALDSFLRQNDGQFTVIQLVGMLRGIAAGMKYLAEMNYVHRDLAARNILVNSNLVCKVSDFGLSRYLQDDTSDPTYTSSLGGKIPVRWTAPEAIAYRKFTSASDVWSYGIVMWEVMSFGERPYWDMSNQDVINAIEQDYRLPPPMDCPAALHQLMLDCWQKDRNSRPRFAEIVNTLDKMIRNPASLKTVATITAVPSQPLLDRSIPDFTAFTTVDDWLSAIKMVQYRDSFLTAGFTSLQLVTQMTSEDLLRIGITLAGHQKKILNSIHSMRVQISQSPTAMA
Chain of Grb2 SH2 (P62993 whole entry, looked up): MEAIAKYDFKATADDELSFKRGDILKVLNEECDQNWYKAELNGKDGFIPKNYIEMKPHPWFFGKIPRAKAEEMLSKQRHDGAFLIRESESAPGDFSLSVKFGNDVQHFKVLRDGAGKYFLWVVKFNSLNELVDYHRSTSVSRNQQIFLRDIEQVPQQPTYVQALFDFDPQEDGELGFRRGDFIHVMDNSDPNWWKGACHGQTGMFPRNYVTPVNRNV
Chain of FGFR3 (P22607 whole entry, looked up): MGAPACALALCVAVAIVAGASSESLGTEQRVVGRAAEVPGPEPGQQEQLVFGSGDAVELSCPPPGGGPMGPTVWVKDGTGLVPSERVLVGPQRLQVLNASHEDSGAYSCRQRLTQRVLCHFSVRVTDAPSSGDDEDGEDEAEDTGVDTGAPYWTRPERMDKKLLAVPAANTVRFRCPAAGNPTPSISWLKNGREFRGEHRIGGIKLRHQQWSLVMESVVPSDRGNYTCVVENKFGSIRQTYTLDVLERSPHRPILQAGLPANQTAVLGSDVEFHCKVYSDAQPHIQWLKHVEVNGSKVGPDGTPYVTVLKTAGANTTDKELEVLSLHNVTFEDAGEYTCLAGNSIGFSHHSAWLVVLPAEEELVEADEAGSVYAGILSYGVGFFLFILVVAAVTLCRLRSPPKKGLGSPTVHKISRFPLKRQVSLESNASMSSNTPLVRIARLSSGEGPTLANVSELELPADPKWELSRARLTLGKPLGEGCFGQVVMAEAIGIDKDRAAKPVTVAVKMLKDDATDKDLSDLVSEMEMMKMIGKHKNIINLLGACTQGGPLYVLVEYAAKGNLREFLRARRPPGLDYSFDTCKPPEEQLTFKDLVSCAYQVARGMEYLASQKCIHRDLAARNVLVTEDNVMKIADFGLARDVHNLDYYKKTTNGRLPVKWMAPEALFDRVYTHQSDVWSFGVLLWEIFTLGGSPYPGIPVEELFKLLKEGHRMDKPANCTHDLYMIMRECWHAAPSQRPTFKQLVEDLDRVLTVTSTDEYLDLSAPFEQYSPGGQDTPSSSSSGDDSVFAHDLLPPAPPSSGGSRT
Chain of Fyn (P06241 whole entry, looked up): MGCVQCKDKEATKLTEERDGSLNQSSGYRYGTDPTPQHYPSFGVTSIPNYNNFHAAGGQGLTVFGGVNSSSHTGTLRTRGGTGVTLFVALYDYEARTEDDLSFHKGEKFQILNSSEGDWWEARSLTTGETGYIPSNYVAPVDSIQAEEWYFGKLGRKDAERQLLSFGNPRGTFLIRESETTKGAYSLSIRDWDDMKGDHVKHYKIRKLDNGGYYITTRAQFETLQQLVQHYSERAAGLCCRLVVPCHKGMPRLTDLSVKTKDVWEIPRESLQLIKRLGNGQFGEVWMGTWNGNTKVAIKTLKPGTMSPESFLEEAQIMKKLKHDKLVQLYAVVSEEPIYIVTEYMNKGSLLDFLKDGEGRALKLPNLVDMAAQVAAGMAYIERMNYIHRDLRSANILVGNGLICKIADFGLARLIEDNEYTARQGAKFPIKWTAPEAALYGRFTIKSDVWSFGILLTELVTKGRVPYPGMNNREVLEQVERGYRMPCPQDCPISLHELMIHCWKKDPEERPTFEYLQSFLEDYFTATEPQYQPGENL
Chain of FGFR1 (P11362 whole entry, looked up): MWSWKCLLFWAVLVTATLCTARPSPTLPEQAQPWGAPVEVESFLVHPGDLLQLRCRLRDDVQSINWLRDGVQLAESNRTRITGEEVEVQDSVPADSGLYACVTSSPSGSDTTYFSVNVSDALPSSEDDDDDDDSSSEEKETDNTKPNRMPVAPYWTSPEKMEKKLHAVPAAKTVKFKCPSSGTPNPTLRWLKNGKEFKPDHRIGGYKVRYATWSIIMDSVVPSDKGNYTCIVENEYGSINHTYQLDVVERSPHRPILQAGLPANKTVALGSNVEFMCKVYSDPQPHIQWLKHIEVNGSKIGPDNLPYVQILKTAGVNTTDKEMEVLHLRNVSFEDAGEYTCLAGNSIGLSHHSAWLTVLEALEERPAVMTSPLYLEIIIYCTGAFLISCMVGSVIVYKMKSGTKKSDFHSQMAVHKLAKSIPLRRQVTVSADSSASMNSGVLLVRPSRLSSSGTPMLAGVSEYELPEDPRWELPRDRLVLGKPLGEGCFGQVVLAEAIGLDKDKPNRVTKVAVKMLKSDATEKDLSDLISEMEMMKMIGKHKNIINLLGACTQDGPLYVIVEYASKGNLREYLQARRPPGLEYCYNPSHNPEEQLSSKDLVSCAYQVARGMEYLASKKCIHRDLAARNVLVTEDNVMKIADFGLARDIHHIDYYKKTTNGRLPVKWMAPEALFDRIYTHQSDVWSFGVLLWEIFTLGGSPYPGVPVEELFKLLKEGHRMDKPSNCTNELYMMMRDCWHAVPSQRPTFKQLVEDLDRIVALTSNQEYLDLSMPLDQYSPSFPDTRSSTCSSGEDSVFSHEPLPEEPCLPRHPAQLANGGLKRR

| Sequence | phosphorylation enrichment [1] | phosphorylation enrichment [2] | phosphorylation enrichment [3] | phosphorylation enrichment [4] | phosphorylation enrichment [5] | phosphorylation enrichment [6] | phosphorylation enrichment [7] | phosphorylation enrichment [8] | phosphorylation enrichment [9] | phosphorylation enrichment [10] | phosphorylation enrichment [11] | phosphorylation enrichment [12] | phosphorylation enrichment [13] | SH2 binding enrichment [14] | SH2 binding enrichment [15] | SH2 binding enrichment [16] |
| --- | --- | --- | --- | --- | --- | --- | --- | --- | --- | --- | --- | --- | --- | --- | --- | --- |
| IYGASYVPFAA [RBM47_Y541] | 0.701 | 0.67 | 0.861 | 0.78 | 0.708 | 7.91 | 0.687 | 10 | 7.75 | 2.11 | 6.3 | 9.26 | 6.94 | 0.616 | 0.649 | 0.553 |
| ISDNACQYMLT [MYH7_Y162_Y162C] | 1 | 0.629 | 0.583 | 0.623 | 0.687 | 0.587 | 1.05 | 0.546 | 0.518 | 1.18 | 0.75 | 0.679 | 0.811 | 0.752 | 0.748 | 0.511 |
| NKKFHYRELPV [ERN2_Y860_H858Y_YF] | 0.459 | 0.362 | 0.351 | 0.368 | 0.45 | 0.374 | 0.508 | 0.419 | 0.332 | 0.372 | 0.306 | 0.407 | 0.266 | 0.877 | 1.06 | 0.678 |
| WDLTDYLMKIL [ACTB_Y188_R183W] | 1.25 | 0.556 | 0.548 | 0.539 | 0.777 | 0.529 | 1.32 | 0.519 | 0.611 | 1.23 | 0.477 | 0.894 | 0.487 | 1.66 | 1.92 | 1.32 |
| NMSRIYSTTKV [ACE_Y151_A154T] | 0.441 | 0.296 | 0.302 | 0.341 | 0.36 | 0.319 | 0.443 | 0.425 | 0.382 | 0.421 | 0.366 | 0.583 | 0.431 | 0.972 | 1.06 | 0.396 |
| TSLAQYDSNSK [BMX_Y216] | 0.622 | 0.352 | 0.568 | 0.525 | 0.443 | 0.37 | 0.736 | 0.344 | 0.428 | 0.579 | 0.444 | 0.543 | 0.479 | 0.826 | 0.622 | 0.438 |
| IFLENYNAGTF [CFI_Y421_H418L_YF] | 0.896 | 0.468 | 0.578 | 0.489 | 0.724 | 0.423 | 0.938 | 0.55 | 0.427 | 0.844 | 0.428 | 0.542 | 0.491 | 0.761 | 0.786 | 0.527 |
| RQNRFYDAKVR [FKBP6_Y188] | 0.687 | 0.226 | 0.432 | 0.506 | 0.496 | 0.605 | 0.715 | 0.427 | 0.606 | 0.81 | 0.672 | 0.658 | 1.18 | 1.02 | 0.675 | 0.441 |
| GVTLLYFGRFN [ADGRD1_Y85_YF] | 1.54 | 0.501 | 0.676 | 0.448 | 0.794 | 0.497 | 1.34 | 0.562 | 0.541 | 1.32 | 0.389 | 0.817 | 0.426 | 1.27 | 1.41 | 0.981 |
| ILGRTHYVNHE [NEDD4_Y627_Y627H] | 0.565 | 0.468 | 0.671 | 0.419 | 0.434 | 0.376 | 0.593 | 0.373 | 0.318 | 0.582 | 0.398 | 0.596 | 0.482 | 5.66 | 1.44 | 0.767 |
| ADRARYSAFGG [RBM4_Y361] | 0.5 | 0.371 | 0.303 | 0.35 | 0.394 | 0.424 | 0.523 | 0.41 | 0.381 | 0.482 | 0.4 | 0.546 | 0.397 | 0.78 | 0.58 | 0.55 |
| EKEKEYMLPLD [DNM2_Y563_K562E] | 1.1 | 0.48 | 0.414 | 0.443 | 0.604 | 0.388 | 0.959 | 0.421 | 0.469 | 0.743 | 0.442 | 0.479 | 0.358 | 0.834 | 0.729 | 0.581 |
| YKEQGYHRLPP [RIN1_Y681] | 0.478 | 0.363 | 0.364 | 0.622 | 0.544 | 0.365 | 0.507 | 0.462 | 0.35 | 0.977 | 0.346 | 0.455 | 0.431 | 1.11 | 0.917 | 0.904 |
| FNSLLYQVPTS [CALCOCO2_Y358_P357L] | 2.77 | 12 | 18.8 | 1.17 | 1.32 | 15 | 1.06 | 2.58 | 6.55 | 2.1 | 12.5 | 17.8 | 3.65 | 0.818 | 0.91 | 0.538 |
| LSNPAYCLLLA [DDR1_Y513_R514C] | 1.5 | 1.05 | 0.844 | 6.78 | 4.44 | 0.973 | 1.63 | 0.605 | 0.855 | 1.49 | 5.79 | 0.912 | 0.699 | 0.683 | 0.819 | 0.591 |
| NKVKFYIPYMN [NCR1_Y84_D87Y] | 0.919 | 0.599 | 0.496 | 0.483 | 0.655 | 0.469 | 1.06 | 0.394 | 0.431 | 0.893 | 0.473 | 0.609 | 0.495 | 1.74 | 1.65 | 1.51 |
| TNITEYCRDLI [RECQL_Y492_K487T] | 1.01 | 0.614 | 0.617 | 0.498 | 0.743 | 0.491 | 1.35 | 0.497 | 0.569 | 1.25 | 0.415 | 0.81 | 0.56 | 0.759 | 0.6 | 0.537 |

| Sequence | phosphorylation enrichment [1] | phosphorylation enrichment [2] | phosphorylation enrichment [3] | phosphorylation enrichment [4] | phosphorylation enrichment [5] | phosphorylation enrichment [6] | phosphorylation enrichment [7] | phosphorylation enrichment [8] | phosphorylation enrichment [9] | phosphorylation enrichment [10] | phosphorylation enrichment [11] | phosphorylation enrichment [12] | phosphorylation enrichment [13] | SH2 binding enrichment [14] | SH2 binding enrichment [15] | SH2 binding enrichment [16] |
| --- | --- | --- | --- | --- | --- | --- | --- | --- | --- | --- | --- | --- | --- | --- | --- | --- |
| GVTLLCFGRFN [ADGRD1_Y85_Y85C_YF] | 1.14 | 0.732 | 0.669 | 0.524 | 0.885 | 0.498 | 1.53 | 0.443 | 0.587 | 1.09 | 0.384 | 0.9 | 0.388 | 0.922 | 0.863 | 0.465 |
| SKHHLYSDLQT [PTCHD1_Y84_R82H] | 0.487 | 0.462 | 0.389 | 0.55 | 0.589 | 1.91 | 0.786 | 0.505 | 0.985 | 0.887 | 2.23 | 0.51 | 0.634 | 1.06 | 0.966 | 10 |
| RMDGTYACSYT [FLNB_Y704] | 0.934 | 0.876 | 0.85 | 0.538 | 0.579 | 0.617 | 1.02 | 1.87 | 1.74 | 0.92 | 0.757 | 1.47 | 3.25 | 1.17 | 1.02 | 0.923 |
| YRVDCYKNFVA [FHL1_Y213_C209R] | 0.984 | 0.559 | 0.595 | 0.565 | 0.753 | 0.493 | 1.22 | 0.504 | 0.487 | 0.837 | 0.507 | 0.543 | 0.415 | 1.51 | 0.984 | 0.556 |
| LDMSQYFRLFN [CPT2_Y217] | 1.1 | 0.539 | 0.531 | 2.15 | 1.62 | 0.613 | 1.55 | 0.959 | 0.885 | 4.15 | 0.755 | 0.92 | 0.601 | 1.23 | 2.02 | 0.669 |
| GRRNTYYASIA [ACADM_Y352] | 0.653 | 0.35 | 0.477 | 0.45 | 0.454 | 0.414 | 0.849 | 0.532 | 0.56 | 0.735 | 0.774 | 0.572 | 0.638 | 0.779 | 0.624 | 0.999 |
| SGDINYGQFAQ [PLCG1_Y210_T209N] | 0.727 | 0.478 | 0.63 | 0.289 | 0.548 | 0.423 | 0.683 | 0.554 | 0.65 | 0.631 | 0.387 | 0.874 | 0.647 | 1.07 | 0.596 | 0.526 |
| CTTIRYNYMCN [TP53_Y234_H233R] | 0.787 | 0.461 | 0.583 | 0.475 | 0.544 | 0.479 | 0.81 | 0.464 | 0.449 | 0.674 | 0.457 | 0.491 | 0.417 | 1.48 | 1.55 | 3.56 |
| RISPEYKQNEI [GJB1_Y243_L239I] | 1.15 | 0.998 | 0.73 | 0.866 | 0.836 | 0.687 | 1.07 | 0.922 | 0.607 | 0.983 | 0.598 | 1.06 | 0.604 | 0.944 | 1.15 | 0.412 |
| VTPSEYLEIVR [TMEM130_Y412_E407V] | 0.969 | 1.21 | 0.618 | 0.557 | 0.736 | 0.45 | 0.859 | 0.51 | 0.751 | 0.762 | 0.387 | 0.681 | 0.44 | 0.763 | 0.825 | 0.521 |
| AIMSFYAALID [RYR1_Y2426] | 1.15 | 1.13 | 0.667 | 0.417 | 0.988 | 0.69 | 1.48 | 0.506 | 0.574 | 1.56 | 0.74 | 1.02 | 0.513 | 0.978 | 1.47 | 0.778 |
| AALSAYAPQRP [PTPRN2_Y249_A251P] | 0.853 | 0.54 | 0.527 | 0.605 | 0.584 | 0.541 | 1.08 | 0.733 | 0.529 | 0.803 | 0.543 | 0.791 | 0.521 | 0.713 | 0.549 | 0.504 |
| FAADFYKLLGN [ROR2_Y646_YF] | 1.02 | 0.474 | 0.512 | 0.365 | 0.66 | 0.366 | 1.01 | 0.366 | 0.484 | 1.16 | 0.438 | 0.738 | 0.524 | 0.849 | 0.821 | 0.431 |
| MTFMFYRENLR [NLRP14_Y443_V441M_YF] | 1.45 | 0.691 | 0.724 | 0.545 | 0.784 | 0.705 | 1.28 | 0.537 | 0.518 | 1.32 | 0.526 | 0.879 | 0.445 | 0.909 | 1.22 | 0.567 |
| LSQAKYQIRFR [CRLF1_Y272_F268S_YF] | 0.933 | 0.682 | 0.286 | 0.558 | 0.596 | 0.499 | 0.672 | 0.621 | 0.431 | 0.63 | 0.499 | 0.597 | 0.421 | 1.12 | 0.78 | 0.645 |
| FVSIVYNDSGE [TSC2_Y1650] | 0.951 | 0.509 | 0.702 | 0.559 | 0.725 | 0.52 | 0.993 | 0.596 | 0.611 | 0.942 | 0.571 | 0.647 | 0.516 | 1.2 | 1.01 | 0.705 |
